Assay [1] addresses T1, CD138 on the surface of U266 cells (CD138+ human lymphoblastic myeloma cell line) (human, UniProt P18827 23-310).
T1 construct: whole, on cells; also called cell surface CD138; membrane CD138
T1 sequence (looked up): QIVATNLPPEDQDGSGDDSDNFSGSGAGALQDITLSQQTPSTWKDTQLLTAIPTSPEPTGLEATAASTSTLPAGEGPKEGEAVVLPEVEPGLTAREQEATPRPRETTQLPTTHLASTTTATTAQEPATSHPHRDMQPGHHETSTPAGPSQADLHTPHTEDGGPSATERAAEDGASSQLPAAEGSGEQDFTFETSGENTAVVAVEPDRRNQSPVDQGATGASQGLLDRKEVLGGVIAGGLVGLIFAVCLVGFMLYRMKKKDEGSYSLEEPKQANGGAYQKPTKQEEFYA
In words: flow cytometry on U266 cells at pH 6.0, MFI against antibody concentration (0.01-10 ug/mL). Here is the method:
(§1) Antibody binding to membrane CD138 was evaluated using the CD138+ human lymphoblastic myeloma cell line (U266) and quantified by flow cytometry. Cells were grown in RPMI1640 with 10% FBS. […] Cells were washed (1X) with same pH-matched buffer (and as throughout the experiment) followed by incubation with secondary (detection) goat anti-human Fab( Jackson Immuno Research) conjugated with Alexa Fluor-488 for 30 minutes also at either pH 6.0 or 7.4. Cells were washed once more and resuspended in matching pH buffer and evaluated by flow cytometry. Antibody cell binding was reported as geometric mean fluorescence intensity (MFI). Dose-response curves were generated using GraphPad Prism. Binding data were plotted using nonlinear regression analysis and a 4-parameter curve fit.
For orientation: In flow cytometry, cells or beads pass a laser one at a time.

Assay [2] deals with T2, Biotinylated recombinant soluble human CD138 extracellular domain (Sino Biological, Cat. 11429-H08H) (human, UniProt P18827 18-251, biotin (EZ-Link NHS-SS-PEG4 Biotin) on primary amino groups of lysines, protein:biotin 1:20).
T2 construct: range 18-251; Bought reagent; The limits are printed as approximate; also called biotinylated CD138; recombinant CD138
T2 sequence (looked up): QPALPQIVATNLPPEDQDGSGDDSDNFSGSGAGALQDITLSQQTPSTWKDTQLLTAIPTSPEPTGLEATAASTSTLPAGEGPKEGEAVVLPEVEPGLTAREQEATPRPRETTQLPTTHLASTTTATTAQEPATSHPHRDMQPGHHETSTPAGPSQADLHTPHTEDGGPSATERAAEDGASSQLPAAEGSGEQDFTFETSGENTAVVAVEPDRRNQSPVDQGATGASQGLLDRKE
In words: BLI (Octet): biotinylated CD138 (10 nM) on streptavidin tips, antibody 12.5 and 25 nM, pH 6.0, 1:1 fit. Here is the method:
(§2) Binding experiments were carried using assay buffer comprised of 100 mM Sodium Phosphate+ 150 mM NaCl + 0.02% Tween-20 and adjusted to target pH of 7.4, 6.0, 6.4, or 6 using appropriate ratios of monobasic and dibasic sodium phosphate buffer. 25 nM biotinylated CD138 was loaded onto Streptavidin capture Octet (SA) tips for 120 seconds (antigen loading step) followed by antibody binding for associated for 300 seconds (association step), and subsequently dissociation for 300 seconds (dissociation step). All steps were carried out at the respective target pH using the corresponding pH adjusted buffers.
(§3) Modifications to this protocol included lowering the loading concentration of biotinylated CD138 from 25 nM to 10 nM and varying the test antibody concentrations ranging from 25 nM down to 0.8 nM (as 2-fold dilutions). The rationale for doing so was to potentially reduce any target avidity effects while also looking at the analyte concentration dependency.
(§4) Data were analyzed for purposes of calculating approximate kinetic binding parameters and apparent binding affinities based on these rates. Data was fit assuming a 1:1 binding model.
Background: BLI is a label-free optical method that tracks binding on a fibre tip over time.

Assay [3] deals with T3, Recombinant soluble human CD138 extracellular domain (analyte in SPR) (human, UniProt P18827 23-254).
T3 construct: extracellular domain; also called recombinant CD138 (the antigen)
T3 sequence (looked up): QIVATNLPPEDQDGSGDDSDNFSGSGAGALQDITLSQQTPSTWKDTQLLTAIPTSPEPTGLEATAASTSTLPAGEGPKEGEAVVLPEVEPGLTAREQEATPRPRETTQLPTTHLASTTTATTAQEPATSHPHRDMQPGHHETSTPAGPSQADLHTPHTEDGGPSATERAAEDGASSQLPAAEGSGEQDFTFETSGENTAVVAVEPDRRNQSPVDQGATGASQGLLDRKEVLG
In words: SPR (Carterra LSA): antibody captured by anti-human IgG, CD138 as analyte, pH 6.0, 1:1 fit; pH 6.0, SPR. An excerpt:
(§5) This method as described, immobilizes the target (recombinant CD138) through biotinylation-streptavidin capture. Such a method may, in principle, lead to biases in binding due to either chemical modification of the capture ligand and/or avidity effects due to immobilization of this ligand on the biosensor. Moreover, this method depends on diffusion-based principles of dissociation leading to non-equilibrium binding states. Surface plasmon resonance is an orthogonal, commonly used method for determining binding kinetics and deriving affinity values based on these parameters. In this method, antibodies were directly coupled to the sensor chip and probed with several concentrations of recombinant CD138 (the antigen) varying from 100 nM to 41 nM. This evaluation was completed under two different pH conditions, i.e., pH 6.0 and pH […].
(§6) Antibody-CD138 binding was evaluated on a Carterra LSA high throughput SPR instrument. Binding experiments were carried out using binding buffer comprising 100 mM sodium phosphate, 150 mM NaCl and 0.05% Tween-20 buffer. Buffers were adjusted to target pH of 7.4 and 6.0, by use of sodium hydroxide or HCL, respectively. All steps were also carried out independently at these respective buffer pHs. Antibodies were captured on the SPR (CMDP) chip using an anti-human IgG covalently coupled to the CMDP chip based on standard protocols, as described by the instrument manufacturer, and to create a uniform lawn on the chip surface at a target 25 nM anti-CD138 antibody concentration. Binding to CD138 was achieved by uniformly passing binding analyte with increasing concentrations of CD138 (41 nM-100 nM) for 15 minutes and allowing dissociation for 20 minutes. Analyte was flowed over the chip at a rate of 2 milliliters/minute. Raw binding data were processed using kinetics data analysis software also provided by the manufacturer (Carterra) following as 2X background subtraction that used the first six injections of buffer blanks and the internal machine reference controls. Kinetic data was analysed using a global fit and assuming a 1:1 binding interaction. Further analysis of individual binding curves (sensorgrams) with best fits were used to refine the calculation of kinetic parameters.

Assay [4] deals with T2, Biotinylated recombinant soluble human …. In words: BLI (Octet): biotinylated CD138 (10 nM) on streptavidin tips, antibody 12.5 and 25 nM, pH 6.0, 1:1 fit; pH 6.0. Here is the method: as §2, §3, §4
Assay [5] concerns the target T3, Recombinant soluble human CD138 …. In words: SPR (Carterra LSA): antibody captured by anti-human IgG, CD138 as analyte, pH 6.0, 1:1 fit.
From the text: as §5
Antibody-CD138 binding was evaluated on a Carterra LSA high throughput SPR instrument. Binding experiments were carried out using binding buffer comprising 100 mM sodium phosphate, 150 mM NaCl and 0.05% Tween-20 buffer. Buffers were adjusted to target pH of 7.4 and 6.0, by use of sodium hydroxide or HCL, respectively. All steps were also carried out independently at these respective buffer pHs. […] Kinetic data was analysed using a global fit and assuming a 1:1 binding interaction. […]

Assay [6] shares this target. In words: SPR (Carterra LSA): antibody captured by anti-human IgG, CD138 as analyte, pH 7.4, 1:1 fit.
From the text: as §5, §6

Assay [7] has as its target T1, CD138 on the surface of U266 cells …. In words: flow cytometry on U266 cells at pH 6, MFI against antibody concentration (about 0.03-30 ug/mL). As to the method:
as §1
Binding was evaluated as described.

For assay [8] the target is unchanged. In words: flow cytometry on U266 cells at pH 6.5, MFI against antibody concentration (about 0.03-30 ug/mL).

Results on seven molecules are retold here after US20230348614A1 (VISTERRA, published 2023).

B1: Ab175 (antibody, V domains shown)
VH: EVQLVQSGAEVKKPGASVKVSCKASGYSFSSYYMHWVRQAPGQGLEWMGTIHPSDSTTNYNQKFQGRVTMTVDTSTRTAYMELSSLRSEDTAVYYCADFLYWGQGTTVTVSS
VL: DIVMTQTPLSLSVTPGQPASISCKSSKSLLYKDGHTYLNWFLQKPGQSPQLLIYVVSTRASGVPDRFSGSGSGTDFTLKISRVEAEDVGVYYCQQLVEYPYTFGQGTKLEIK
notes: also called mAb Ab175
What is called EC50 (read off the curve) is the concentration giving half of the maximal effect. Read a low EC50 (read off the curve) as greater potency. In the case of B1, in assay [1], the “EC50 (read off the curve)” value is about 0.2 µg/mL.

B2: Antibody Ab30 (antibody, V domains shown)
VH: EVQLVQSGAEVKKPGASVKVSCKASGYSFSSYYMHWVRQAPGQGLEWMGTIHPEDSTTNYNQKFQGRVTMTVDTSTRTAYMELSSLRSEDTAVYYCADFVYWGQGTTVTVSS
VL: DIVMTQTPLSLSVTPGQPASISCKSSKSLLYKDGKTYLNWFLQKPGQSPQLLIYVVSTRASGVPDRFSGSGSGTDFTLKISRVEAEDVGVYYCQQLVEYPYTFGQGTKLEIK
By Kd is commonly meant the concentration at which binding is half-saturated. For orientation: koff means the rate constant with which the complex falls apart. As a reminder, the kon is the second-order rate constant of association. Take B2: in assay [2], the Kd is 4.6 nM, the off-rate (koff) is 0.0034 s⁻¹ and the kon came to 720000 M⁻¹ s⁻¹.

B3: Antibody Ab17 (antibody, V domains shown)
VH: EVQLVQSGAEVKKPGASVKVSCKASGYSFSSYYMHWVRQAPGQGLEWMGTIHPSDSTTNYNQKFQGRVTMTVDTSTRTAYMELSSLRSEDTAVYYCADFVYWGQGTTVTVSS
VL: DIVMTQTPLSLSVTPGQPASISCKSSKSLLYKDGHTYLNWFLQKPGQSPQLLIYVVSTRASGVPDRFSGSGSGTDFTLKISRVEAEDVGVYYCQQLVEYPYTFGQGTKLEIK
notes: also called mAb 17; Mab 17
With B3, in assay [1], the “EC50 (read off the curve)” value was about 0.5 µg/mL. For the same molecule, in assay [3], the Kd was 16 nM, the koff turned out to be 0.0026 s⁻¹ and the kon stood at 170000 M⁻¹ s⁻¹. Besides, in assay [4], the Kd was 6.2 nM, the koff was 0.0051 s⁻¹ and the kon came to 860000 M⁻¹ s⁻¹.

B4: Antibody Ab71 (antibody, V domains shown)
VH: QVQLVQSGAEVKKPGASVKVSCKASGYSFSSYYMHWVRQAPGQGLEWMGDIHPSDSTTNYNQKFQGRVTMTVDTSTRTAYMELSSLRSEDTAVYYCANFVYWGQGTTVTVSS
VL: DIVMTQTPLSLSVTPGQPASISCKSSKSLLYKDGKTYLNWFLQKPGQSPQLLIYVVSTRASGVPDRFSGSGSGTDFTLKISRVEAEDVGVYYCQQLVEYPYTFGQGTKLEIK
For the molecule B4, in assay [5], the koff is 0.0018 s⁻¹ and the on-rate constant (kon) turned out to be 300000 M⁻¹ s⁻¹. For the same molecule, in assay [6], the Kd came to 21 nM, the koff was found to be 0.00028 s⁻¹ and the kon is 10000 M⁻¹ s⁻¹. In assay [2], the Kd was 0.98 nM, the koff worked out at 0.0011 s⁻¹ and the kon was found to be 1.2e+06 M⁻¹ s⁻¹.

B5: Antibody Ab137 (antibody, V domains shown)
VH: QVQLVQSGAEVKKPGASVKVSCKASGYSFSSYYMHWVRQAPGQGLEWMGTIHPSDSTTNYNQKFQGRVTMTVDTSTRTAYMELSSLRSEDTAVYYCANFVYWGQGTTVTVSS
VL: DIVMTQTPLSLSVTPGQPASISCKSSKSLLYKDGKTYLNWFLQKPGQSPQLLIDVVSTRASGVPDRFSGSGSGTDFTLKISRVEAEDVGVYYCQQLVEYPYTFGQGTKLEIK
Turning to B5, the “EC50 (read off the curve)” value in assay [7] was about 0.4 µg/mL. In assay [3], the Kd stood at 16 nM, the koff came out at 0.0029 s⁻¹ and the kon turned out to be 180000 M⁻¹ s⁻¹. Besides, the “EC50 (read off the curve)” value in assay [8] is about 0.7 µg/mL. In assay [4], the Kd was found to be 2.9 nM, the koff stood at 0.003 s⁻¹ and the kon amounted to 1e+06 M⁻¹ s⁻¹.

B6: Antibody Ab28 (antibody, V domains shown)
VH: EVQLVQSGAEVKKPGASVKVSCKASGYSFSSYYMHWVRQAPGQGLEWMGTIYPGDSTTNYNQKFQGRVTMTVDTSTRTAYMELSSLRSEDTAVYYCADFVYWGQGTTVTVSS
VL: DIVMTQTPLSLSVTPGQPASISCKSSKSLLYKDGKTYLNWFLQKPGQSPQLLIYVVSTRASGVPDRFSGSGSGTDFTLKISRVEAEDVGVYYCQQLVEYPYTFGQGTKLEIK
notes: also called Mab 28
Consider B6, for which the results for the “EC50 (read off the curve)” value in assay [1], in assay [7] and in assay [8] were about 0.7 µg/mL, about 0.5 µg/mL and about 0.8 µg/mL, respectively. The Kd in assay [3] stood at 12 nM; in assay [4] it was 4 nM. In addition, the koff was determined as 0.0026 s⁻¹ in assay [3] and 0.0045 s⁻¹ in assay [4]. In addition, the kon in assay [3] turned out to be 220000 M⁻¹ s⁻¹; in assay [4] it was 1.2e+06 M⁻¹ s⁻¹.

B7: Antibody Ab32 (antibody, V domains shown)
VH: EVQLVQSGAEVKKPGASVKVSCKASGYSFSSYYMHWVRQAPGQGLEWMGTIHPSDSTTNYNQKFQGRVTMTVDTSTRTAYMELSSLRSEDTAVYYCADFLYWGQGTTVTVSS
VL: DIVMTQTPLSLSVTPGQPASISCKSSKSLLYKDGKTYLNWFLQKPGQSPQLLIYVVSTRASGVPDRFSGSGSGTDFTLKISRVEAEDVGVYYCQQLVEYPYTFGQGTKLEIK
Regarding B7, the “EC50 (read off the curve)” value in assay [1] was about 1 µg/mL. In assay [2], the Kd was found to be 6.4 nM, the koff is 0.0036 s⁻¹ and the kon came out at 560000 M⁻¹ s⁻¹.
